Laboratory results taken from the supplement of paper PMC10201428.
± gives the standard deviation of the averaged measurements.

Tests used:
[1] = test system: VchCAST RNA-guided transposition machinery (E. coli BL21(DE3) host, lacZ target); assay: relative integration efficiency (T-LR orientation) vs wild-type transposon end (log2 (normalized fold change)); transposon end mutated: right end (5 bp flank + 75 bp right end); higher = more efficient transposition
Summary of the method: (§1)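 A T7-driven effector plasmid encoding a CRISPR array, tniQ-cas8-cas7-cas6 and tnsA-tnsB-tnsC was co-transformed into E. coli BL21(DE3) together with a pUC57 mini-transposon donor holding barcoded pools of 1549 left-end or 1849 right-end variants. Transformants were plated with 0.1 mM IPTG at 37°C for 18 h. Illumina sequencing of PCR-amplified input plasmids and genomic integration junctions gave barcode abundances, and relative integration efficiency is their output/input fold change, normalised to reference barcodes and log-transformed.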

[2] = test system: VchCAST RNA-guided transposition machinery (E. coli BL21(DE3) host, lacZ target); assay: relative integration efficiency (T-RL orientation) vs wild-type transposon end (log2 (normalized fold change)); transposon end mutated: right end (5 bp flank + 75 bp right end); higher = more efficient transposition
Summary of the method: as §1

## ACATTTGTTGATACACCCATAAATTGATAATTACACCCATAAATTGATATTGCTCACACCCATAAATTGATATTGCCTCTGATCATAGTCAGACCAACATTGCTACGACCCGTATTCGCACCGACAC
[1]
  relative integration efficiency (log2): 0.393 ± 0.28
[2]
  relative integration efficiency (log2): -0.538 ± 0.15

## ACATTTGTTGATACACCCATAAATTGATAATTACACCCATAAATTGATATTGCTCAGTGGGTATTTAACTATAACGCTCTGATCATAGTCAGACCAACATTGCTACGACCCGTATTCGCACCGACAC
[1]
  relative integration efficiency (log2): 2.63 ± 0.18
[2]
  relative integration efficiency (log2): -1.23 ± 0.25

## ACATTTGTTGATACACCCATAAATTGATATTGCCAACCATAAAATGATAATTATCACAACCATAAAATGATAATTACTCTGATCATAGTCAGACCAACATTGCTACGACCCGTATTCGCACCGACAC
[1]
  relative integration efficiency (log2): -0.058 ± 0.3
[2]
  relative integration efficiency (log2): -0.123 ± 0.11

## ACATTTGTTGATACACCCATAAATTGATATTGCCAACCATAAAATGATAATTATCACAACCATAAAGTGATATTTACTCTGATCATAGTCAGACCAACATTGCTACGACCCGTATTCGCACCGACAC
[1]
  relative integration efficiency (log2): -0.327 ± 0.1
[2]
  relative integration efficiency (log2): -0.59 ± 0.12

## ACATTTGTTGATACACCCATAAATTGATATTGCCAACCATAAAATGATAATTATCACAACCATAAGTTGATATTTTCTCTGATCATAGTCAGACCAACATTGCTACGACCCGTATTCGCACCGACAC
[1]
  relative integration efficiency (log2): -0.175 ± 0.71
[2]
  relative integration efficiency (log2): -0.46 ± 0.23

## ACATTTGTTGATACACCCATAAATTGATATTGCCAACCATAAAATGATAATTATCACAACCATATATTGATATCTCCTCTGATCATAGTCAGACCAACATTGCTACGACCCGTATTCGCACCGACAC
[1]
  relative integration efficiency (log2): -0.207 ± 0.002
[2]
  relative integration efficiency (log2): -0.961 ± 0.18

## ACATTTGTTGATACACCCATAAATTGATATTGCCAACCATAAAATGATAATTATCACACCCATAAATTGATAATTACTCTGATCATAGTCAGACCAACATTGCTACGACCCGTATTCGCACCGACAC
[1]
  relative integration efficiency (log2): -0.568 ± 0.82
[2]
  relative integration efficiency (log2): -0.642 ± 0.2

## ACATTTGTTGATACACCCATAAATTGATATTGCCAACCATAAAATGATAATTATCACACCCATAAATTGATATTGCCTCTGATCATAGTCAGACCAACATTGCTACGACCCGTATTCGCACCGACAC
[1]
  relative integration efficiency (log2): -0.203 ± 0.43
[2]
  relative integration efficiency (log2): -0.863 ± 0.071

## ACATTTGTTGATACACCCATAAATTGATATTGCCAACCATAAAATGATAATTATCAGTGGGTATTTAACTATAACGCTCTGATCATAGTCAGACCAACATTGCTACGACCCGTATTCGCACCGACAC
[1]
  relative integration efficiency (log2): 2.28 ± 0.096
[2]
  relative integration efficiency (log2): -1.21 ± 0.35

## ACATTTGTTGATACACCCATAAATTGATATTGCCAACCATAAAGTGATATTTATCACAACCATAAAATGATAATTACTCTGATCATAGTCAGACCAACATTGCTACGACCCGTATTCGCACCGACAC
[1]
  relative integration efficiency (log2): -0.362 ± 0.13
[2]
  relative integration efficiency (log2): -0.499 ± 0.21

## ACATTTGTTGATACACCCATAAATTGATATTGCCAACCATAAAGTGATATTTATCACAACCATAAAGTGATATTTACTCTGATCATAGTCAGACCAACATTGCTACGACCCGTATTCGCACCGACAC
[1]
  relative integration efficiency (log2): -0.426 ± 0.4
[2]
  relative integration efficiency (log2): -0.684 ± 0.13

## ACATTTGTTGATACACCCATAAATTGATATTGCCAACCATAAAGTGATATTTATCACAACCATAAGTTGATATTTTCTCTGATCATAGTCAGACCAACATTGCTACGACCCGTATTCGCACCGACAC
[1]
  relative integration efficiency (log2): -0.0145 ± 0.0084
[2]
  relative integration efficiency (log2): -0.617 ± 0.14

## ACATTTGTTGATACACCCATAAATTGATATTGCCAACCATAAAGTGATATTTATCACAACCATATATTGATATCTCCTCTGATCATAGTCAGACCAACATTGCTACGACCCGTATTCGCACCGACAC
[1]
  relative integration efficiency (log2): 0.117 ± 0.34
[2]
  relative integration efficiency (log2): -0.78 ± 0.17

## ACATTTGTTGATACACCCATAAATTGATATTGCCAACCATAAAGTGATATTTATCACACCCATAAATTGATAATTACTCTGATCATAGTCAGACCAACATTGCTACGACCCGTATTCGCACCGACAC
[1]
  relative integration efficiency (log2): -0.215 ± 0.15
[2]
  relative integration efficiency (log2): -0.649 ± 0.14

## ACATTTGTTGATACACCCATAAATTGATATTGCCAACCATAAAGTGATATTTATCACACCCATAAATTGATATTGCCTCTGATCATAGTCAGACCAACATTGCTACGACCCGTATTCGCACCGACAC
[1]
  relative integration efficiency (log2): -0.415 ± 0.17
[2]
  relative integration efficiency (log2): -0.74 ± 0.11

## ACATTTGTTGATACACCCATAAATTGATATTGCCAACCATAAAGTGATATTTATCAGTGGGTATTTAACTATAACGCTCTGATCATAGTCAGACCAACATTGCTACGACCCGTATTCGCACCGACAC
[1]
  relative integration efficiency (log2): 2.341 ± 0.0029
[2]
  relative integration efficiency (log2): -1.12 ± 0.16

## ACATTTGTTGATACACCCATAAATTGATATTGCCAACCATAAGTTGATATTTTTCACAACCATAAAATGATAATTACTCTGATCATAGTCAGACCAACATTGCTACGACCCGTATTCGCACCGACAC
[1]
  relative integration efficiency (log2): -0.0638 ± 0.3
[2]
  relative integration efficiency (log2): -0.413 ± 0.23

## ACATTTGTTGATACACCCATAAATTGATATTGCCAACCATAAGTTGATATTTTTCACAACCATAAAGTGATATTTACTCTGATCATAGTCAGACCAACATTGCTACGACCCGTATTCGCACCGACAC
[1]
  relative integration efficiency (log2): -0.457 ± 0.31
[2]
  relative integration efficiency (log2): -0.583 ± 0.25

## ACATTTGTTGATACACCCATAAATTGATATTGCCAACCATAAGTTGATATTTTTCACAACCATAAGTTGATATTTTCTCTGATCATAGTCAGACCAACATTGCTACGACCCGTATTCGCACCGACAC
[1]
  relative integration efficiency (log2): -0.197 ± 0.3
[2]
  relative integration efficiency (log2): -0.695 ± 0.095

## ACATTTGTTGATACACCCATAAATTGATATTGCCAACCATAAGTTGATATTTTTCACAACCATATATTGATATCTCCTCTGATCATAGTCAGACCAACATTGCTACGACCCGTATTCGCACCGACAC
[1]
  relative integration efficiency (log2): 0.0942 ± 0.34
[2]
  relative integration efficiency (log2): -0.899 ± 0.17

## ACATTTGTTGATACACCCATAAATTGATATTGCCAACCATAAGTTGATATTTTTCACACCCATAAATTGATAATTACTCTGATCATAGTCAGACCAACATTGCTACGACCCGTATTCGCACCGACAC
[1]
  relative integration efficiency (log2): 0.0375 ± 0.27
[2]
  relative integration efficiency (log2): -0.7 ± 0.21

## ACATTTGTTGATACACCCATAAATTGATATTGCCAACCATAAGTTGATATTTTTCACACCCATAAATTGATATTGCCTCTGATCATAGTCAGACCAACATTGCTACGACCCGTATTCGCACCGACAC
[1]
  relative integration efficiency (log2): -0.37 ± 0.1
[2]
  relative integration efficiency (log2): -0.773 ± 0.11

## ACATTTGTTGATACACCCATAAATTGATATTGCCAACCATAAGTTGATATTTTTCAGTGGGTATTTAACTATAACGCTCTGATCATAGTCAGACCAACATTGCTACGACCCGTATTCGCACCGACAC
[1]
  relative integration efficiency (log2): 2.3 ± 0.092
[2]
  relative integration efficiency (log2): -1.31 ± 0.4

## ACATTTGTTGATACACCCATAAATTGATATTGCCAACCATATATTGATATCTCTCACAACCATAAAATGATAATTACTCTGATCATAGTCAGACCAACATTGCTACGACCCGTATTCGCACCGACAC
[1]
  relative integration efficiency (log2): -0.955 ± 0.52
[2]
  relative integration efficiency (log2): -1.22 ± 0.23

## ACATTTGTTGATACACCCATAAATTGATATTGCCAACCATATATTGATATCTCTCACAACCATAAAGTGATATTTACTCTGATCATAGTCAGACCAACATTGCTACGACCCGTATTCGCACCGACAC
[1]
  relative integration efficiency (log2): -0.365 ± 0.021
[2]
  relative integration efficiency (log2): -1.21 ± 0.24

## ACATTTGTTGATACACCCATAAATTGATATTGCCAACCATATATTGATATCTCTCACAACCATAAGTTGATATTTTCTCTGATCATAGTCAGACCAACATTGCTACGACCCGTATTCGCACCGACAC
[1]
  relative integration efficiency (log2): 1.12 ± 0.16
[2]
  relative integration efficiency (log2): 0.0747 ± 0.27

## ACATTTGTTGATACACCCATAAATTGATATTGCCAACCATATATTGATATCTCTCACAACCATATATTGATATCTCCTCTGATCATAGTCAGACCAACATTGCTACGACCCGTATTCGCACCGACAC
[1]
  relative integration efficiency (log2): -0.214 ± 0.48
[2]
  relative integration efficiency (log2): -1.29 ± 0.34

## ACATTTGTTGATACACCCATAAATTGATATTGCCAACCATATATTGATATCTCTCACACCCATAAATTGATAATTACTCTGATCATAGTCAGACCAACATTGCTACGACCCGTATTCGCACCGACAC
[1]
  relative integration efficiency (log2): 0.0732 ± 0.11
[2]
  relative integration efficiency (log2): -1.1 ± 0.15

## ACATTTGTTGATACACCCATAAATTGATATTGCCAACCATATATTGATATCTCTCACACCCATAAATTGATATTGCCTCTGATCATAGTCAGACCAACATTGCTACGACCCGTATTCGCACCGACAC
[1]
  relative integration efficiency (log2): -0.587 ± 0.35
[2]
  relative integration efficiency (log2): -1.11 ± 0.06

## ACATTTGTTGATACACCCATAAATTGATATTGCCAACCATATATTGATATCTCTCAGTGGGTATTTAACTATAACGCTCTGATCATAGTCAGACCAACATTGCTACGACCCGTATTCGCACCGACAC
[1]
  relative integration efficiency (log2): 2.26 ± 0.088
[2]
  relative integration efficiency (log2): -1.7 ± 0.32

## ACATTTGTTGATACACCCATAAATTGATATTGCCACCCATAAATTGATAATTATCACAACCATAAAATGATAATTACTCTGATCATAGTCAGACCAACATTGCTACGACCCGTATTCGCACCGACAC
[1]
  relative integration efficiency (log2): -0.453 ± 0.047
[2]
  relative integration efficiency (log2): -0.382 ± 0.087

## ACATTTGTTGATACACCCATAAATTGATATTGCCACCCATAAATTGATAATTATCACAACCATAAAGTGATATTTACTCTGATCATAGTCAGACCAACATTGCTACGACCCGTATTCGCACCGACAC
[1]
  relative integration efficiency (log2): -0.376 ± 0.6
[2]
  relative integration efficiency (log2): -0.75 ± 0.089

## ACATTTGTTGATACACCCATAAATTGATATTGCCACCCATAAATTGATAATTATCACAACCATAAGTTGATATTTTCTCTGATCATAGTCAGACCAACATTGCTACGACCCGTATTCGCACCGACAC
[1]
  relative integration efficiency (log2): -0.238 ± 0.32
[2]
  relative integration efficiency (log2): -0.676 ± 0.16

## ACATTTGTTGATACACCCATAAATTGATATTGCCACCCATAAATTGATAATTATCACAACCATATATTGATATCTCCTCTGATCATAGTCAGACCAACATTGCTACGACCCGTATTCGCACCGACAC
[1]
  relative integration efficiency (log2): -0.478 ± 0.18
[2]
  relative integration efficiency (log2): -1.14 ± 0.14

## ACATTTGTTGATACACCCATAAATTGATATTGCCACCCATAAATTGATAATTATCACACCCATAAATTGATAATTACTCTGATCATAGTCAGACCAACATTGCTACGACCCGTATTCGCACCGACAC
[1]
  relative integration efficiency (log2): -0.0383 ± 0.28
[2]
  relative integration efficiency (log2): -0.597 ± 0.26
